# Measurements as given in a protein production outcome set (Wang et al. 2014).
# Assay: label from the status in PepcDB records
row,Sequence,protein production
1,MAKYDVLTIGNAIVDIIARCDDSFLEENGIIKGAMNLINADRAELLYSRMGPAVEASGGSAGNTAAGVASLGGRAAYFGKVADDQLGEIFTHDIRAQGVHFQTKPLDGHPPTARSMIFVTEDGERSMNTYLGACVELGPEDVEDDVVAQSKVTYFEGYLWDPPRAKDAIREAARIAHAHGRETAMTLSDSFCVHRYRSEFLELMRSGTVDIVFANRQEALALYETEDFDRALELLARDCKLAAVTLSEEGSVVVRGAERVRVGASVLEQVVDTTGAGDLYAAGFLFGYTSGRSLEECSKLGNLAAGIVIGQIGPRPLVSLATAARQAALV,not failed
2,MAKYETPPPVRPLEKLITDFSYTNGLDPVNVFNDFLTYIIHGFSPGAPPLQNWKYKRLQNMKFMEMLTGWVQLMASRIKDDTSWYDPFGDLYMALVSKSAQQSQGQFFTPVHICDLMVLCTQTEEKMTGQRMGDPTCGSGRLLLAYHARNPENYLIGEDINRTCCLMTVCNMLIHGCVGEVICHDSLNPGNFVDGWKVNPMLTWTGIPTIKRMNMKEYRAGRNLPASPYIIRKTMLAGSRKHKTDSLLPLQAVFKMLEHHHHHH,not failed
3,MAKYVVTSAWPYVNHVPHLGTLIGSVLSADIYARYLRLRGRQVVFVSGSDEHGTPIELEARKKGVHPKELTDQVHEYDVKMWREYRISFDNYSRTESPVHKEFVMEFMKKLEENGYIFSQEEVLPYCERDKIFLPDRFVEGTCPYCGYEKARGDQCDECGRLLHPTELKNPRCALCGSKPVYKSTRHWFIDLRRVQDRLLKWLESHGELQDSVKKYSINWVAQGLKPRSVTRDLSWGVPAPFKGAEGKTIYVWFDALLGYVSATKELFIMRRGDPEEWKSWWWDSGTRTVYFIGKDNIPFHAIILPALFLASHDPYVLPWRISATEYLMYEGQQFSKSRRIGVWIDEALEIAPADYWRWALARMRPEARDTNFTWKEFYRIVNTELNDDIGNFVNRVLSLVRSRMSGVAPEPEDLGEHQGFVERVRRAAWAVAEDLEAIRIKRATEGILEIAREGNAYLNRTQPWKLLSQDREEGVRALSAALYAVKTLAHLLAPFTPDAADRLWSMLGLAGSVHEAVWDEWLDRPLPGGARIVRVEPLFQKLPDDFLERVDEIVEDARRRAREKRPPLLRD,failed
4,MALANFIDRAATAASQVLADFHLEDFKAALEKQVVAVAFDDQAASCAEGQATLDLAVRLLARLYPVLAILPLGSAASFQAQALERLAKSINPKVGIRRSGKSATICVVAGVTRPPLRCPTFFMGSDGWAAKLSRTDPVGSGSSLLPYGAGAASCFGAANVFRTIFAAQLTGAELDETIDLSLYSYDKTKAGEAGPIDIPVDLGETHLVGLGAIGHGSLWALARQPGLTGRLHVIDHEAIELSNLQRYVLAGQAEIGMSKAVLAATALRSTAIGVEAHPLTWAEYVARHGDWVFDRVGVALDTAADRLAVQGALPRWIANAWTQEHDLGISRHGFDDGQACLCCMYLPSGKSKDEHHLIAEELGIPEAHEQVKTLLQTNAGVPNDFVVRVATAMAVPFEPLAPFVGQPLRSFYQQAICGGLVFQLSDGSRRVRTVVPMAFQSALAGIMLAAELVKHSAGFPVGPTTSTRVNLLRPLGSRLHDPKAKDSSGRCICSDDDFIAAYRRKYGKSIVQLSDVSAA,failed
5,MALARWGAALQRRWQAIDPAERAGFVAGARFYVGSLPPVFAWGLVTGVAMSKSVLTIPQAIGMTLLVYAGSSQLAVLPLMAAGLPVWTVLLTAFIVNVRFIIFSAGLMQHFSHLPFGRRVLIGFFNGDLPFVLFSQRYPGPGPERGKEGYLWGMALANWTIWQVSSLLGIVGASLFPDAWGLALAGTLALIPVMVSTIRSRATLMAVAVAAVLALVAFKLPYRLSLVIAVVGAMAAGLAGDEATARLQWQRRGAQPAPSEPKEGP,failed
6,MALDQSLVGRSYPPTAPYEVGREKIREFAEAVGDANPAYTDAEAAKALGHPDVIAPPTFVFSITFKAAGQVIEDPQLGLDYSRVVHGDQKFSYARPVRAGDRLTVTSTIEAIKSMAGNDILDIRGEVHDEAGEHVVTAWTKLVARAAEEALEHHHHHH,not failed
7,MALFSVFSVAQTTTYHTKNKKSISAYQEAELLQQQRRWNEAINVLDAVIQKDTGFVEAYYKVGSMYMAMGNKTAAARYFCKGADLDPSVKAFAGAYFTAGELSYNEGEYVRAKRYFGYALNVQSGDKKIKEQTPVYIAKCDFAIDMMKHPVDFKPVLMTPPINTAFAQSHPVLTADGKTLYYTTLSGLSRQDDENIVTSSYVNGKWSEPVSISDNINSKENEGTCSISMDGNSLVFVGCGKADGLGSCDIYISKKVNNVWSKPTNLGPAVNSTSWDSHPSLSADGRTLYFVSARKGGFGKEDIYVTHLDEKGIWSPAQNAGSSVNTSGTEFSPFIHADGTTLYFSSNGLLGMGGLDIFYTTGNDTTWAVPKNIGYPLNTYANDETLFITVDGAKGYYSRFDGTNVNYNSRIFLYEFDVPQSLKPGRISTFAKGHIYDKQTKKPLGARVELVDIETNTVTQAVQSDSITGEYTIVITEGKEYAVYVNRNKYLFESLNVNYKNPTSFDALTLDIYLTPIISGSHVTLNNIFFQTNSYQLEEKSISELKKLINFIQINPAQRVELAGYTDNVGTAEANLKLSAMRAKAVYDYLIQHGIKPAGITYKGYGAASPVADNNSEEGRQKNRRLEIKIL,failed
8,MALGFGMKMELQQFLDALASSPEKIEFETTMAVIEDNYDFTPAAFTNGNTQNDANENNGSCKIFAFGLLNALDKEATLACFGRFYREDVLLHPENNDHQNIRNFMVTGWEGIQFETSALTAK,not failed
9,MALHNDGFINRQFVFGDFVLQFDGVLCHQEQQISVPPKELAVLTALLEAAGELVSKDALLDKVWPDGDVNEESLTRCIYALRRILLEDKSNRYIDTVYGKGYRFSRPVAVVSRPTASAQKCTMAILPFRTDGQLDSLELHAALVQCLSRYSPFGLVVMPATITRNCGDIADIIAMIDQLRPDYYLAGQVQQQGDSWLLRVELVRADGHQLVHHESIEIGPGEHIAALQTRLASLLPQRIPGLRWHHGNGSQLDSLDMAITYLNGRHELQQHTPSSLKRALALFLQCTSSQPGNALPYCSLAECYLALAQLGLFDQERALDGAQQAVDRAVALDAANPQALGLLALLSSLRGQQTIAEALFEQARMLAPDSIDIHYYHAWHLFLSDRIPLAQRSLDACLERDPSRIAASMLQLWLTYCEHRLDEAVALGKRQLCQYGQDHPVLQSMLGLMLAIQGQHAQAEELAAAVKASGEEAGLLAVNGCYIAHCRMGDAARPLLQDFLSRVDCRQVRSGLLPLILALHGRAGALHLLGQLESDRYLWLRASRQDPRLAGLFHPHLSEAA,failed
10,MALIEGFRVRNYRALRDITLGRLSAEQQGDPLTPFTVVIGKNGVGKSTLFDAFGFVADCLSKDVESACDDKQRGGFERMRSLGTEESIRFDIYYREAKGERPITYELAINLDSSGRPFVESEVLKQRRKGQKHGRPYPFLRLHHGVGKVWAGEEAVETSSGEEDRAQEDVELTDLRQLGIATLGTLKEHPRIKRFRDFLKGWHLSYFHPDSARSIPSAGAQRHLDVHGENIGNVVQYMEREHKERFKTILDRIAAKIPGVHSIRTTVTQDKRVLLQFNDGAFNDPFYAGQMSDGTLKIFAYLLLMEDPEPPPFICIEEPENGLYHRLLDSLASELRSHATGKKNAPQIFVTTHQPYFVDALSTKEVWILEKGKNGFSTICRASDIDLVRNLVEEGLPLGGLWYGDYLDTK,failed
11,MALIETGPGSTVPMLQARLAARGLTPADVSEVFLTHIHLDHAGAAGHLARHGATIYAHHVGLPHLSDPARLLASARRIYGDDMDALWGEMHPVPDDQLVALNDGDTVPLGGEPLTALDTPGHASHHMSYVLGDVCFTGDVGGVRMPEERHVELPLAPPEIDLDAWRESLAALRAAADRHGLTHLAPTHFGLYDDLPAHFERLEAAIETADDWAARKLPGWDDGDEALQDAVTQWMRSRASDHGVDGDAWDRYERANPSWMAALGLRRYWTTQTA,failed
12,MALKELTAKEFESYSGNYDLQSFMQTPEMAKLLKKRGYDITYMGYQIDGKMEIISIVYTIPMTGGLHMEVNSGPAHSNSKYLKHFYKELQNYAKSQGALELLIKPYDTYQEFTGEGKPKGAPNTYLIDDLTSIGYHHDGLHIGYPGGEPDWHYVKNLEGITPQNLLKSFSKKGRPLVKKAMSFGIKIRVLKREELHIFKDITSSTSDRRDYMDKSLDYYQDFYDSFGDKAEFVIATLNFREYDHNLQLNAKKLEEQITVLDNRHQNNTDSAKYHRQRTELVNQLASLDKRRKEVEPFIQKFGNQDVVLAGSLFIYSPKETVYLFSGSYTEFNKFYAPAVLQEYVMQEALKRQSTFYNFLGIQGNFDGSDGVLRFKQNFNGYIVRKMGTFRYYPNPLKYKSIQLLKKILRRT,failed
13,MALKSHLRACSRPFPRQIGRMRRRNKSLPAAFVSKRLSVLIISRKPEMKALTCMAVLAALVTGSAFAQTPPQTSTRKVDGTDNVYIFRYGGHQSMFVVTPKGVIATDPISYLRPAKPYIDAIKAVTDQPIKYVVYSHHHYDHIAGGQPFKDLGATFIAHRRTKERLLELKKQNALLADVVMPDQVVDDKKSITLGGTTLELNYVGRNHSDNSLVMRLPKEKIVFVVDFAPIESVQFRNIPDNVSPLEYIASLKKLASLDWERMIPGHPNAGGRLGTKKDVEDDIAYMEDLSAEVKKAADAGKCIDTAMKEVKLPKYEKWANYETALPANVERFCYWWGRGY,failed
14,MALLLFFLFIALLGFGILKINNRSILGGITLASGTLLSLVTLLFIGLDKIYLHFKNGDLITLAIAYLLIPAVFIGICLYFIFNSRTMQTKEGKSVTAKLSAGLGLNLLIALPAFLYLLSVGTAQIPYVLFLFLLFLLLMDLLLTFLFAAYVLYSWMYQMIPLKKAVDYIIVLGSGIRSEEVPPLLKSRLDKGIEYYEKNPTAKFVVSGGQGPDEPVAEAFAMKKYLLSQNIPAEAILMEDQSTTTYENMLFSKAIIQADWQKMPSDSKQPSVIFSTNNYHVLRGAMYAHRVGLKAEGVGAPTALYFLPTALIREYIALLVHDKRIVLFVFLLVTLLLGISILPI,failed
15,MALMTNKTRALLIGGHGKVALLATPMLIDASVQVTSMYRNPDHRSEIEALGATTLERDVTTLSVEDWADLLKDFDVVVWSAGNGGKNGADATYAIDRDAAIASIDGAASLGEKAPRYIMVSYIGSSTHTIDPSASFYPYAESKKAADEHLSSTNLDYLILAPAALTLDEVNGVEVIADTNEAAAGRTTSRVLVAEVITEFVVRDFPQTRVLPFVDGESPVSSIS,failed
16,MALMTNKTRALLIGGHGKVALLATPMLIDASVQVTSMYRNPDHRSEIEALGATTLERDVTTLSVEDWADLLKDFDVVVWSAGNGGKNGADATYAIDRDAAIASIDGAASLGEKAPRYIMVSYIGSSTHTIDPSASFYPYAESKKAADEHLSSTNLDYLILAPAALTLDEVNGVEVIADTNEAAAGRTTSRVLVAEVITEFVVRDFPQTRVLPFVDGLEHHHHHH,failed
17,MALQTEQFNANILRNGEWVESRTGERISISAPASGVALGSIPALSQEEVNDAIQGAKDAQKIWKIRPIHERVDLLYAWADLLEERKEIIGELIMHEVAKPKKSAIGEVSRTADIIRHTADEALRLNGETLKGDQFKGGSSKKIALVEREPLGVVLAISPFNYPVNLAAAKIAPALVTGNTVVFKPATQGSLSGIKMVEALADAGAPEGIIQVVTGRGSVIGDHLVEHPGIDMITFTGGTTTGERISEKAKMIPVVLELGGKDPAIVLDDADLKLTASQIVSGAFSYSGQRCTAIKRVFVQDSVADQLVANIKELVEQLTVGSPEDDADITPVIDEKSAAFIQGLIDDALENGATLLSGNKRQGNLLSPTLLDDVTPAMRVAWEEPFGPVLPIIRVKDANEAISLSNQSDYGLQASIFTKDTDRAINIGKHLEVGTVHINAKTERGPDHFPFLGVKKSGLGVQGIKPSLLSMTRERVTVLNL,not failed
